Experimental data published in paper doi:10.1101/2021.02.18.431817 (bioRxiv, 2021).

What was measured:
SAP2:CFP = molecular target: T1, SAP2:CFP (A. thaliana, UniProt Q8H0X0 1-173); test: FRET or BRET
T1 sequence (looked up): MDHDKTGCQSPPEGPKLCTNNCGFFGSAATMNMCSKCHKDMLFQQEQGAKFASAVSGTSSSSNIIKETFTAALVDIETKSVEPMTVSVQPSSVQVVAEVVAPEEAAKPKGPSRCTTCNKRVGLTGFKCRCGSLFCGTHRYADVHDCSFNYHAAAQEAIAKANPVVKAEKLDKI

SAP3:CFP = molecular target: T2, SAP3:CFP (A. thaliana, UniProt Q9ZNU9 1-163); test: FRET or BRET
T2 sequence (looked up): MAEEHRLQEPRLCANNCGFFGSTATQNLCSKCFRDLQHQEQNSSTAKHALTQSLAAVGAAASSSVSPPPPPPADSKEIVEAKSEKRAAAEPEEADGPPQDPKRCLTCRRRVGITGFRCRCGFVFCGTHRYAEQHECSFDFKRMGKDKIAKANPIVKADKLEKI

B1: CML49:YFP (natural protein, A. thaliana, UniProt Q8W4L0 1-335, looked up)
chain: MSGYPPSSQGYGYGGNPPPPQPPYGSTGNNPPPYGSSGSNPPPPYGSSASSPYAVPYGAQPAPYGAPPSAPYASLPGDHNKPHKEKPHGASYGSPSPGGYGAHPSSGPSDYGGYGGAPQQSGHGGGYGGAPQQSGHGGGYGAPPPQASYGSPFASLVPSAFPPGTDPNIVACFQAADRDNSGFIDDKELQGALSSYNQSFSIRTVHLLMYLFTNSNVRKIGPKEFTSLFFSLQNWRSIFERFDKDRSGRIDTNELRDALMSLGFSVSPVILDLLVSKFDKSGGRNRAIEYDNFIECCLTVKGLTEKFKEKDTALSGSAIFNYENFMLTVLPFLVA
FRET efficiency, fold of negative control (SAP2:CFP): > 5 fold of negative control
FRET efficiency, fold of negative control (SAP3:CFP): > 5 fold of negative control
